Test results reported in US20080138339A1.

Target: OC183B2 (antigens associated with ovarian carcinoma) (human)
Assay: indirect ELISA of phage-displayed scFv

B1: anti-ovarian carcinoma scFv antibody (scFv)
scFv: EVQLQESGPEVKKPGETVRISCKASGYTFTTAGMQWVQKMPGKGLKWLGWINTNSEVPKYAEDFRGRFAFSLETSASTAYLQISNLKNEDTATFFCARSFTWGTMDYWGQGTTVTVSSGGGGSGGGGSGGGGSDVVMTQTPLSLPVSLGDQASISCRSSQTLVHSIGNTYLHWYLQKPGQSPKLLIYKVSNRFSGVPDRFSGSGSGTDFTLKISRVEAEDLGVYFCSQSTHVPYTFGGGTKLELK
binding activity relative to negative control: 2.5 times
